Laboratory results: paper PMC13267735, “Structural basis of liver de-targeting and neuronal tropism of CNS-targeted AAV capsids” (Molecular therapy : the journal of the American Society of …, 2026)

Legend:
Details in all cases: both partners purified
AAV9 (wild-type) capsid = molecular target: T1, AAV9 (wild-type) capsid (adeno-associated virus serotype 9 (AAV9), UniProt Q6JC40 1-736); experiment: BLI; BLItz; biotin-conjugated CaptureSelect AAV9 nanobody on streptavidin biosensor, AAV (5x10^12 vg/ml) loaded as biolayer, MBP-tagged PKD2 as analyte at 1.25-80 uM, 120 s association and 120 s dissociation; DPBS, 1% BSA, 0.02% Tween-20; Kd averaged from 3 experiments
T1 construct: AAV9 capsid protein VP1; VR-IV 452-458 NGSGQNQ, VR-VIII 587-590 AQAQ; Whole virus capsid packaging an eGFP genome; also called wild-type AAV9; source: HEK293T, triple-transfected (pHelper, capsid and genome plasmids), purified (iodixanol gradient)

AAV-PHP.eB capsid [1] = molecular target: T2, AAV-PHP.eB capsid (adeno-associated virus serotype 9 (AAV9), UniProt Q6JC40 1-736, 587-588 AQ to DGTLAVPFK); experiment: as above
T2 construct: AAV9 capsid protein VP1 with the PHP.eB VR-VIII 7-mer insertion TLAVPFK between residues 588 and 589 and two flanking point mutations (587-588 AQ to DG); capsid holds VP1, VP2 and VP3; Whole virus capsid packaging an eGFP genome; VP1/VP2/VP3 assembly; source: HEK293T, triple-transfected (pHelper, capsid and genome plasmids), purified (iodixanol gradient)

AAV.CAP-B10 capsid [2] = molecular target: T3, AAV.CAP-B10 capsid (adeno-associated virus serotype 9 (AAV9), UniProt Q6JC40 1-736, 452NGSGQNQ458 to 452DGAATKN458 | 587-588 AQ to DGTLAVPFK); experiment: as above
T3 construct: capsid holds VP1, VP2 and VP3; Whole virus capsid packaging an eGFP genome; VP1/VP2/VP3 assembly; source: HEK293T, triple-transfected (pHelper, capsid and genome plasmids), purified (iodixanol gradient)

eB.24 capsid [3] = molecular target: T4, eB.24 capsid (adeno-associated virus serotype 9 (AAV9), UniProt Q6JC40 1-736, S454A | Q456T | 587-588 AQ to DGTLAVPFK); experiment: as above
T4 construct: capsid holds VP1, VP2 and VP3; Whole virus capsid packaging an eGFP genome; VP1/VP2/VP3 assembly; also called PHP.eB.24; source: HEK293T, triple-transfected (pHelper, capsid and genome plasmids), purified (iodixanol gradient)

AAV9-B10 capsid = molecular target: T5, AAV9-B10 capsid (adeno-associated virus serotype 9 (AAV9), UniProt Q6JC40 1-736, 452NGSGQNQ458 to 452DGAATKN458); experiment: as above
T5 construct: AAV9 capsid protein VP1 with the CAP-B10 7-mer in VR-IV (452-458 DGAATKN) and unaltered AAV9 VR-VIII; capsid holds VP1, VP2 and VP3; Whole virus capsid packaging an eGFP genome; VP1/VP2/VP3 assembly; source: HEK293T, triple-transfected (pHelper, capsid and genome plasmids), purified (iodixanol gradient)

AAV9-X1 capsid = molecular target: T6, AAV9-X1 capsid (adeno-associated virus serotype 9 (AAV9), UniProt Q6JC40 1-736, GNNTRSV inserted between 588 and 589); experiment: as above
T6 construct: capsid holds VP1, VP2 and VP3; Whole virus capsid packaging an eGFP genome; VP1/VP2/VP3 assembly; source: HEK293T, triple-transfected (pHelper, capsid and genome plasmids), purified (iodixanol gradient)

AAV9-X1.1 capsid = molecular target: T7, AAV9-X1.1 capsid (adeno-associated virus serotype 9 (AAV9), UniProt Q6JC40 1-736, 452NGSGQNQ458 to 452DGAATKN458 | GNNTRSV inserted between 588 and 589); experiment: as above
T7 construct: AAV9 capsid protein VP1 with the AAV9-X1 VR-VIII 7-mer insertion GNNTRSV between residues 588 and 589 and the CAP-B10 7-mer in VR-IV (452-458 DGAATKN); capsid holds VP1, VP2 and VP3; Whole virus capsid packaging an eGFP genome (SCP1 promoter); VP1/VP2/VP3 assembly; source: HEK293T, triple-transfected (pHelper, capsid and genome plasmids), purified (iodixanol gradient)

AAV-PHP.eB capsid [4] = molecular target: T2, AAV-PHP.eB capsid; experiment: pull-down; 6xHis-tagged bait (AAVR-PKD2 100-200 pmol or His-Fc-LY6A 30-60 pmol) on Ni-NTA resin, prey AAVs (0.05 pmol); DPBS with 20 mM imidazole, 1 hr at 4 C; eluted with 150 mM imidazole; western blot with anti-VP1/VP2/VP3 and anti-6xHis
AAV.CAP-B10 capsid [5] = molecular target: T3, AAV.CAP-B10 capsid; experiment: as above
eB.24 capsid [6] = molecular target: T4, eB.24 capsid; experiment: as above

Binder	Kd (AAV9 (wild-type) capsid)	Kd (AAV-PHP.eB capsid [1])	Kd (AAV.CAP-B10 capsid [2])	Kd (eB.24 capsid [3])	Kd (AAV9-B10 capsid)	Kd (AAV9-X1 capsid)	Kd (AAV9-X1.1 capsid)	binding result (AAV-PHP.eB capsid [4])	binding result (AAV.CAP-B10 capsid [5])	binding result (eB.24 capsid [6])
PKD2 domain of AAVR (AA 401-498) fused to maltose binding protein and 6xHis (domain or fragment, AAV receptor (AAVR), polycystic kidney disease domain 2 (PKD2), AA 401-498; Construct for biolayer interferometry; monomer fraction from SEC was used; also called AAVR-PKD2; MBP-tagged AAVR-PKD2; source: E. coli BL21 (DE3)-RIPL, purified (amylose resin, Superdex 200 SEC)) EPRKNRPPIAIVSPQFQEISLPTTSTVIDGSQSTDDDKIVQYHWEELKGPLREEKISEDTAILKLSKLVPGNYTFSLTVVDSDGATNSTTANLTVNKA	11 µM	14 µM	61 µM	24 µM	47 µM	6 µM	19 µM	–	–	–
LY6A (AA 1-109) derived from C57BL/6 mice with Fc (human IgG1), Myc and 6xHis tags (Fc fusion, mouse (C57BL/6), UniProt P05533 27-109, looked up, signal peptide in the construct; LY6A, C57BL/6 mouse, AA 1-109; also called His-Fc-LY6A; source: HEK293T, transiently transfected, secreted into conditioned media, purified (Ni-NTA)) LECYQCYGVPFETSCPSITCPYPDGVCVTQEAAVIVDSQTRKVKNNLCLPICPPNIESMEILGTKVNVKTSCCQEDLCNVAVP	–	–	–	–	–	–	–	binds	binds	binds
